According to the supplement of paper PMC9732359:
± gives the uncertainty stated by the source.

Assay: protein stability index of a GFP-peptide fusion (yeast GPS) (PSI 1-4); higher = more stable; sorted into four equal gates, so the index is relative within each strain
Method in brief: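 Tiled 17-residue yeast protein peptides were fused downstream of GFP in a plasmid that also expresses Cherry, and the pooled library was carried in yeast. Mid-log cultures in leucine-free medium were sorted into four equal gates by GFP/Cherry fluorescence ratio, and plasmids from each gate were PCR-amplified and Illumina-sequenced, with reads assigned to strains by barcodes. The protein stability index for each peptide was each gate's read frequency times its gate number, summed.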

Row | Sequence | protein stability index (doa10∆) | protein stability index (pdr5∆) | protein stability index (san1∆) | protein stability index (ubr1∆)
1 | QLYKARMSIKLLRLASK [POP1] | 1.54 ± 0.064 | 1.39 ± 0.072 | 1.4 ± 0.11 | 1.14 ± 0.048
2 | NYGEKEERKRWAMQGIS [PCI8] | 2.92 ± 0.14 | 2.52 ± 0.24 |  | 
3 | NTNNNDTIATSATPNAA [GAL11] | 2.7 ± 0.046 | 2.88 ± 0.046 | 2.59 ± 0.044 | 2.74 ± 0.043
4 | PFNFTVTLFQMAILLLY [CDC53] | 1.65 ± 0.045 | 1.59 ± 0.045 | 1.41 ± 0.11 | 1.63 ± 0.039
5 | DKDRDTRRKRRQGRSNR [SNF5] | 3.6 ± 0.23 | 3.48 ± 0.16 | 3.31 ± 0.096 | 3.55 ± 0.14
6 | FNIIREFRSAAGQLALD [YDL116W/NUP84] | 2.92 ± 0.12 | 3.16 ± 0.12 | 2.94 ± 0.076 | 3.25 ± 0.087
7 | NNPPKPQKPVPLNVLQD [SNF2] | 3.04 ± 0.049 | 3.38 ± 0.06 | 3.21 ± 0.045 | 3.052 ± 0.028
8 | AALGMGLCMLGTGKPEA [RPN2] | 3.46 ± 0.13 | 3.32 ± 0.094 | 3.44 ± 0.066 | 3.36 ± 0.088
9 | QDMQLKIWSVKDGSNPR [RPN14] | 2.99 ± 0.097 | 2.86 ± 0.088 | 2.45 ± 0.1 | 2.62 ± 0.075
10 | QQQQQQHIYPSSTPGVA [GAL11] | 2.728 ± 0.022 | 2.78 ± 0.029 | 2.664 ± 0.023 | 2.664 ± 0.025
11 | GSFKRVKPQYDEIHIPA [BRR2] | 2.73 ± 0.1 | 3.07 ± 0.14 | 2.33 ± 0.096 | 2.46 ± 0.11
12 | LGTTEGDIKVLDSNFNL [RPN14] | 3.02 ± 0.12 | 3.11 ± 0.098 | 3.03 ± 0.078 | 3.26 ± 0.081
13 | GGVMANRKIARMRHSKR [YOR098C/NUP1] | 3.31 ± 0.13 | 3.6 ± 0.085 | 3.34 ± 0.09 | 3.32 ± 0.1
14 | GYYLSLGSGSLAAMAVL [PUP1] |  | 1.98 ± 0.29 |  | 
15 | NLTYSSGLFVDVKKRTY [RPB2] | 2.31 ± 0.052 | 2.58 ± 0.051 | 2.4 ± 0.071 | 2 ± 0.031
16 | GKDRIAINVFPEGYKAK [RPO31] | 2.37 ± 0.061 | 2.28 ± 0.079 | 2.5 ± 0.07 | 2.68 ± 0.072
17 | DLDTVLKKDIESLRGIL [SRP72] | 1.63 ± 0.088 | 1.38 ± 0.096 | 1.37 ± 0.25 | 1.61 ± 0.089
18 | KTTYYYYNEEGIHILLY [RPC82] | 1.9 ± 0.12 |  |  | 2.75 ± 0.05
19 | EIFKKGYIKNNKKIYQW [POP6] | 3.46 ± 0.24 |  |  | 
20 | KASSTPAGGLFGQASGA [YGL172W/NUP49] |  |  | 2.19 ± 0.26 | 
21 | RYRVDLLNTDHTLDPSL [RPO21] | 3.09 ± 0.072 | 2.95 ± 0.053 | 2.92 ± 0.05 | 2.9 ± 0.062
22 | LMEKNRIRKLTGQNFLT [REC8] | 1.36 ± 0.044 | 1.37 ± 0.038 | 1.65 ± 0.077 | 1.33 ± 0.041
23 | ETQVLVSTPEKWDITTR [BRR2] | 3.17 ± 0.092 | 3.26 ± 0.083 | 3.31 ± 0.053 | 3.21 ± 0.034
24 | ELKKKRKIKRLEKFLQG [SRP72] | 3.22 ± 0.073 | 3.24 ± 0.091 | 3.19 ± 0.09 | 3.25 ± 0.049
25 | GLFEKSTVSANHSNNDI [BRN1] | 3.12 ± 0.14 | 2.95 ± 0.11 | 3.19 ± 0.08 | 3.11 ± 0.12
26 | EQYIQELDKREDMIDQV [SMC3] | 3.23 ± 0.065 | 3.03 ± 0.084 | 3.01 ± 0.072 | 3.29 ± 0.15
27 | IIDGPKALILAPTRELV [PRP28] | 1.59 ± 0.062 | 2.32 ± 0.053 | 1.89 ± 0.1 | 1.68 ± 0.052
28 | APIPIREDIDDPLAKVN [BRR2] | 2.9 ± 0.075 | 2.66 ± 0.07 | 2.55 ± 0.09 | 2.22 ± 0.059

Row | Sequence | protein stability index (doa10∆) | protein stability index (pdr5∆) | protein stability index (san1∆) | protein stability index (ubr1∆)
29 | QGATNEGYQNDINTIKL [SRP72] | 3.54 ± 0.27 | 3.15 ± 0.17 | 2.46 ± 0.23 | 
30 | RNPARLMETLRTLRRKG [RPB2] | 2.28 ± 0.077 | 3.06 ± 0.086 | 2.47 ± 0.089 | 2.87 ± 0.13
31 | IGQLMAFDKHMNLVLNE [SMB1] | 2.04 ± 0.15 | 2.39 ± 0.2 | 2.72 ± 0.16 | 2.57 ± 0.051
32 | QDPIFGSVLLTLLNFVS [ECM29] | 1.63 ± 0.049 | 1.42 ± 0.052 | 1.5 ± 0.098 | 1.41 ± 0.063
33 | WQGKPVFIRHRTPHEIQ [RIP1] |  | 2.24 ± 0.28 |  | 1.68 ± 0.17
34 | EPKLFRMRIFASNEVIA [RPL20A] | 2.19 ± 0.087 | 1.97 ± 0.054 | 1.82 ± 0.06 | 2.28 ± 0.036
35 | ATVLSRKILKKTFKNPK [RPN5] | 2.4 ± 0.044 | 2.67 ± 0.047 | 2.55 ± 0.057 | 2.87 ± 0.037
36 | FHIDHTKPSDLTIKDIV [RPO21] | 2.71 ± 0.048 | 2.66 ± 0.06 | 2.56 ± 0.059 | 2.8 ± 0.035
37 | KERNQKFQLQNQLEDFI [YIL149C/MLP2] | 3.05 ± 0.075 | 3.25 ± 0.066 | 2.78 ± 0.05 | 3 ± 0.053
38 | RAGKYELVKSYSWLLFE [YJR042W/NUP85] | 1.62 ± 0.11 | 1.78 ± 0.08 | 1.18 ± 0.14 | 1.33 ± 0.062
39 | KDMSPILGELKRVKSYM [LRP1] | 2.43 ± 0.062 | 2.74 ± 0.056 | 2.51 ± 0.059 | 2.97 ± 0.038
40 | QINQGVPSAKPLILTPP [SNF11] | 2.75 ± 0.055 | 2.3 ± 0.052 | 2.8 ± 0.058 | 2.02 ± 0.032
41 | VINIAKAHPNFPIALQW [FAS1] | 2.82 ± 0.1 | 2.88 ± 0.086 | 2.25 ± 0.091 | 2.23 ± 0.076
42 | AHKGQIVLIKGISSAYI [SNU114] | 1.56 ± 0.07 | 1.48 ± 0.064 | 1.89 ± 0.069 | 1.86 ± 0.053
43 | EIYYDPDPRSTVIPEDE [RPO21] | 3.04 ± 0.11 | 3.07 ± 0.21 | 3.23 ± 0.14 | 3.06 ± 0.098
44 | LGASFGQQQQQSQTNAF [YGL172W/NUP49] | 2.09 ± 0.11 | 2.75 ± 0.075 | 2.07 ± 0.1 | 2.19 ± 0.075
45 | IKFGGLIIQKIPSLQNN [ECM29] | 1.83 ± 0.066 | 1.72 ± 0.066 | 1.5 ± 0.064 | 1.83 ± 0.062
46 | KTFDYVSDHLDAIYREL [SMC1] | 3.31 ± 0.096 | 3.34 ± 0.12 | 3.37 ± 0.074 | 3.12 ± 0.1
47 | GYSGYGNGITNTTTRVI [SNF5] | 3.64 ± 0.2 | 3.72 ± 0.24 | 2.76 ± 0.18 | 
48 | WPIVNSKVYFNNQSKEK [RPN12] | 2.87 ± 0.15 | 2.78 ± 0.15 | 2.67 ± 0.21 | 3.03 ± 0.13
49 | KRCLFESLSNEAALKAN [RPO31] |  |  |  | 2.84 ± 0.22
50 | PMDEETKLYFDVNEKIR [RPC25] | 3.01 ± 0.098 | 3.03 ± 0.086 | 3.01 ± 0.068 | 3.1 ± 0.1
51 | LRDRNFSATGNFGFGID [RPL11A] | 3.23 ± 0.069 | 3.28 ± 0.072 | 2.93 ± 0.1 | 3.25 ± 0.053
52 | NECVCTPYNADFDGDEM [RPO31] | 3.06 ± 0.069 | 3.18 ± 0.069 | 3.06 ± 0.049 | 3.11 ± 0.09
53 | SAVVSSNASRRKLINYT [RPN4] | 2.77 ± 0.11 | 2.53 ± 0.14 | 2.55 ± 0.069 | 3.26 ± 0.14
54 | RHQQLLRSRLQQQQQQQ [SNF5] | 2.47 ± 0.078 | 2.54 ± 0.078 | 2.4 ± 0.12 | 2.67 ± 0.072
55 | PGVNREINSEMCHIVRK [GRR1] | 3.01 ± 0.096 | 3.05 ± 0.082 | 3.35 ± 0.059 | 3.12 ± 0.052
